For this data set, the system named is PSMα3. In words: EMSA.

As to Poly (A) RNA, oligoA, the Kd stood at 94.5 µM. Next, Poly (AU) RNA, oligoA/oligoU duplex: 61.8 µM.

For the origin of these results see paper doi:10.1101/2025.06.17.660072.
